Laboratory results taken from PMC7274078, “Brain Endothelial Cells Regulate Glucagon-Like Peptide 1 Entry Into the Brain via a Receptor-Mediated Process” (Frontiers in Physiology, 2020).

Columns and labels:
[1] = tested on: Rat brain microvascular endothelial cells (RBMECs); assay: Endothelial cell uptake of GLP-1-FAM; format: cell-based; conditions: confocal fluorescence
Description: Rat brain microvascular endothelial cells (RBMECs; Cell Applications, San Diego, CA, United States) were cultured on a cover slip in rat brain endothelial cell growth medium. After reaching confluency, cells were pre-treated with vehicle (PSS buffer), exendin 9-39 (10 nM) or H89 (Sigma-Aldrich, St. Louis, MO, United States) (10 μM) for 30 min or forskolin (Sigma-Aldrich, St. Louis, MO, United States) (10 μM) for 5 min. Cells were then incubated with GLP-1-FAM at either 10, 100 or 1,000 pM for 3 min at 37°C. DAPI was used to stain the nucleus. After fixation and washing three times with cold TBST (5 min each time), cell images were captured using confocal microscope and fluorescence intensity measured using ImageJ software^1. FAM signal from surface binding of FAM was examined by incubating cells with GLP-1-FAM at 4 or 37°C for 3 min, or free FAM (10, 100, and 1,000 pM) at 37°C for 3 min.
FIGURE 5 GLP-1 uptake by RBMECs is GLP-1 receptor and PKA dependent. RBMECs were pretreated with vehicle (PSS buffer, A,E,I), Exendin 9-39 (10 nM, B,F,J) or H89 (10 μM, C,G,K) for 30 min. Cells were then incubated with GLP-1-FAM at 10, 100 pM or 1 nM for 3 min. DAPI was used to stain the nucleus. Images were captured using confocal microscope. Fluorescence density was analyzed using ImageJ. (D,H,L) Quantitative analysis (n = 3, *p < 0.01, vs. vehicle, Student’s t test). GLP-1R – GLP-1 receptor.
FIGURE 6 cAMP agonist increases GLP-1 uptake by RBMECs. (A) RBMECs were incubated with GLP-1-FAM at 10 pM for 3 min with or without 10 μM forskolin. DAPI was used to stain the nucleus. Images was captured using confocal microscope. Fluorescence density was analyzed using ImageJ. (B) quantitative analysis of the images (n = 6, *p < 0.05, vs. vehicle, Student’s t test).

[2] = tested on: RBMEC and astrocyte barrier; assay: Trans-endothelial GLP-1 transport (Transwell artificial BBB); format: in vitro ADME, rat
Description: The trans-endothelial GLP-1 transport was examined using a Transwell system that mimics the BBB in that RBMECs were co-cultured with astrocytes as illustrated in Figure 7A and previously described ([Gaillard et al., 2001]). Briefly, astrocytes (Thermo Fisher Scientific, Waltham, MA, United States) were seeded on the bottom and RBMECs were then seeded onto the top of the Transwell insert (6.5 mm diameter, 1 μm pore size, polyester membrane; Corning, Corning, NY, United States). Trans-endothelial electrical resistance was monitored using a volt-ohmmeter (EVOM; WPI, Sarasota, FL, United States) and EndOhm chamber (EndOhm; WPI). When the trans-endothelial electrical resistance reached its peak, the insert with double cell layers was washed twice at 37°C with PBS buffer. […] The amount of GLP-1-FAM or inulin-FITC transported to the lower chamber was determined by measuring FAM and FITC fluorescence in the lower chamber at 5, 10, and 30 min. Inulin-FITC transport was used to correct for paracellular transport and the amount of trans-endothelial transport of GLP-1-FAM was calculated using the formula:
Transcellular transport (%)=Fluorescence [FAM]/Reference [FAM]×100−Fluorescence [FITC]/Reference [FITC]×100
Reference refers to fluorescence in the lower chamber at the specified time point when the Transwell inserts had no cells seeded. To determine if this trans-endothelial transport is dose-dependent, 10, 100, and 1,000 pM GLP-1-FAM or inulin-FITC (with DDP-4 inhibitor) was loaded into the upper chamber, the amount of GLP-1-FAM or inulin-FITC in the lower chamber was determined at 10 min, and trans-endothelial transport of GLP-1 was calculated.
FIGURE 7 Trans-endothelial transport of GLP-1 is a GLP-1 receptor-mediated process. […] GLP-1-FAM or inulin-FITC transport to the lower chamber was determined by measuring FAM and FITC fluorescence in the lower chamber. […]

[3] = Circulating GLP-1-FAM / exendin-4-FAM uptake by the brain; format: in vivo; conditions: rat, systemic infusion 30 pmol/kg/min for 10 min; cerebellum, cortex, hippocampus, hypothalamus, brain stem; FAM fluorescence in lysates corrected for vascular space with Dextran-TRITC; n = 7 (GLP-1-FAM), n = 6 (exendin-4-FAM)
Description: Rats received a systemic infusion of either saline or exendin-(9-39) (GLP-1 receptor antagonist, 30 nmol/kg/min, Abcam, Cambridge, United Kingdom) via the jugular vein catheter for 20 min (Figure 1A). In the last 10 min, rats also received 30 pmol/kg/min of either GLP-1-FAM (AnaSpec, Fremont, CA, United States) or exendin-4-FAM (AnaSpec, Fremont, CA, United States) together with Dextran-TRITC (Sigma-Aldrich, St. Louis, MO, United States) (70 kD, vascular space marker, 30 pmol/kg/min). […] After collecting plasma samples, rats were sacrificed via anesthetic overdose and various brain regions (cerebellum, cortex, hippocampus, hypothalamus, and brain stem) collected, homogenized and lysed in lysis buffer. Fluorescence from TRITC and FAM were measured in both plasma and brain lysates. Protein concentrations were determined in the brain lysates. Brain uptake of GLP-1-FAM and exendin-4-FAM were calculated using the following formula:
Tissue fluorescence [FAM]/Tissue weight (μg)−TissueFluorescence [TRITC]/Weight(μg)/PlasmaFluorescence [TRITC]/200(μL)×Plasma Fluorescence [FAM]/200μL
FIGURE 1 GLP-1 and GLP-1 analog exendin-4 enter various brain regions via GLP-1 receptor-mediated process. (A) Protocol. […]

[4] = in vivo; cited from earlier work
Excerpt: Peptides cross the BBB via transcellular vesicular pathways that may be either constitutive or regulated. […] This is similar to leptin ([Banks et al., 1996]) and insulin ([Gray et al., 2014]; [Meijer et al., 2016]), two appetite regulating hormones secreted peripherally that enter into the brain. || The central actions of GLP-1 and its analogs have been well recognized. GLP-1 analogs have been repeatedly shown to cross the BBB, stimulate brain GLP-1 receptors, and modulate mitochondrial function, protein aggregation, neuroinflammation, synaptic plasticity, learning and memory in experimental models of Parkinson's and Alzheimer's disease ([Athauda and Foltynie, 2016]). Our observation that peripherally administrated GLP-1 and exendin-4 rapidly enter various brain regions is consistent with prior findings that peripherally injected GLP-1 analogs can easily enter the brain ([[…] and Akers ...

DPP4 = conditions: no reference given; cited from earlier work
Excerpt: GLP-1 receptors are expressed in multiple brain areas in rodents, primates, and humans and they are involved in learning, neuroprotection and regulation of appetite and satiety ([Wei and Mojsov, 1995]; [During et al., 2003]; [Richards et al., 2014]). Global knockout of the GLP-1 receptor in mice impairs synaptic plasticity and memory formation ([Abbas et al., 2009]). […] Indeed, pre-treatment of animals w ...

Substance	RBMEC uptake ([1]; 10, 100 and 1,000 pM, 3 min at 37°C, ImageJ)	RBMEC uptake at 4°C ([1]; 3 min at 4°C)	concentration dependence of trans-endothelial transport ([2]; Transwell, 10, 100 and 1000 pM, 10 min, with DPP4 inhibitor, n = 6, p = 0.37)	transport across the RBMEC and astrocyte barrier, time course ([2]; Transwell, RBMECs co-cultured with astrocytes, 100 pM in upper chamber with DPP4 inhibitor, lower chamber fluorescence at 5, 10 and 30 min, corrected for paracellular transport with inulin-FITC, n = 7)	FAM-labeled peptide detected in brain regions (brain uptake) [3]	time to detection in the brain after intravenous injection [4] [min]	half-life (DPP4) [h]	stability to DPP4 (DPP4)
GLP-1-FAM: FAM-labeled GLP-1 (AnaSpec)	actively took up	did not take up	does not appear to be concentration dependent	crossed the barrier in a time-dependent fashion	detected in various brain regions	–	–	–
exendin-4	–	–	–	–	–	≤ 5	1.5	DPP4 resistant
